B1: poly(G) 19-mer (ssRNA)
RNA: GGGGGGGGGGGGGGGGGGG
B2: poly(A) 25-mer (ssRNA)
RNA: AAAAAAAAAAAAAAAAAAAAAAAAA
B3: RPS18 5'UTR (ssRNA)
RNA: CUCUCUUCCACAGGAGGCCUACACGCCGCCGCUUGUGCUGCAGCC
B4: RPS6 5'UTR (ssRNA)
RNA: CCUCUUUUCCGUGGCGCCUCGGAGGCGUUCAGCUGCUUCAAG
B5: RPL13A 5'UTR delTOP (ssRNA)
RNA: AAGCGGCUGCCGAAG
B6: RPS6 3'UTR (ssRNA)
RNA: AAGAUUUUUUGAGUAACAAAU
B7: RPS6 5'UTR delTOP (ssRNA)
RNA: GUGGCGCCUCGGAGGCGUUCAGCUGCUUCAAG
B8: PABPC1 42-mer (ssRNA)
RNA: CCUUCUCCCCGGCGGUUAGUGCUGAGAGUGCGGAGUGUGUG
B9: RPL13A 5'UTR (ssRNA)
RNA: CCUUUUCCAAGCGGCUGCCGAAG

The target in the first series is T1, LARP1 La-Module (Homo sapiens, UniProt Q6PKG0-3 310-540). Briefly: competition.
For the molecule B1, the binding result is “binds”.

The target in a further series is T1, LARP1 La-Module. Kind of series: EMSA. A general note: In EMSA bound probe runs differently from free probe, usually more slowly.
Turning to B2, the Kd was found to be 40 ± 1 nM.

Another series concerns the target T1, LARP1 La-Module. Briefly: EMSA. This is another data set of the same source.
For the molecule B3, the binding result is recorded as “no binding”.
Same read-out and setting: to B4 belongs “binds”; to B5, “no binding”; to B6, “no binding”.
As for B7, the binding result is “no binding”.
Same read-out and setting: under B8 stands “no binding”.
On the same count and under the same terms, under B9 stands “binds”.

By Kd is commonly meant the equilibrium constant for the complex coming apart. The low end stands for higher affinity, the high end for lower affinity.

(Values after PMC7927982.)
